B1: CPXM2 (parent)
chain: EILGCPLPDPNNYYHRRNEMTTTD
B2: FUT8 (parent)
chain: NWRYATGGWETVFRPVSETCTDRS

Variants of: B1
Experiment: protein stability index of a GFP-peptide fusion (GPS, HEK-293T) (PSI 1-6); higher = more stable
Conditions: c terminus: a fixed tail appended
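Also: lentivirally expressed fusions sorted by FACS into six bins by GFP to DsRed ratio, PSI derived from sequencing read proportions per bin multiplied by bin number.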

Protein stability index: each site, then its substitutions
D9: H 2.39, V 3.04, K 2.85, R 3.34, M 2.92, F 2.68, S 3.24
H15: F 3.33, V 3.1, Q 3.96, M 3.23, K 3.76, W 2.91, N 3.68, R 3.31
E1: G 3.58, K 3.18, D 3.8, Q 3.02, Y 2.29, I 2.52, L 2.63, F 1.83, W 1.86, S 3.54
R17: E 4.43, D 4.64, Q 4.02, P 4.15, K 3.62, A 3.78, T 4.19, N 4.04
P10: G 3.95, V 3.46, F 3.18, L 2.8, E 4.08, K 3.41, T 3.6, W 2.72, Y 2.91
T22: L 2.69, E 4.39, D 4.09
N12: C 3.44, G 2.85, R 3.35, M 3.41, E 3.85, I 3.05, Q 3.73, W 2.79, A 3.67
P6: Q 2.92, D 3.95, F 1.91, G 2.87, C 2.92, N 2.8
L3: G 4.45, D 4.32, R 4.3, M 4.05, K 4.48, S 4.41, H 4.16
T23: M 2.78, G 3.29, Y 3.13, H 3.6, V 2.85
C5: D 4.09, F 3.65, E 4.07, S 4.17, R 3.54, I 3.28, Q 3.85, T 3.8, L 3.62
E19: H 3.1, V 2.71, D 3.62, F 2.62, T 2.95, I 2.19, Q 3.31
L7: F 3.38, V 3.31, R 3.69, N 4.13, H 3.88, Y 3.61, K 3.88, G 3.48
M20: E 4.59, C 3.69, I 3.69, Y 2.46, D 4.35, P 3.92, V 3.7, F 2.98, Q 4.42, W 3.12
Y13: Q 4.06, R 4.04, C 3.77, E 4.29, N 3.89, K 4.14, G 4.08, P 4.12
N18: M 2.91, G 3.77, K 3.57, F 2.41, E 4.01, V 2.77, D 4.23, A 3.3, T 3.6
D24: S 3.27, P 2.49, E 3.53, K 3.65, F 1.47, N 3.07, Y 2.29
I2: F 3.75, P 4.87, G 5.13, Y 3.77, E 4.91, N 4.55, A 4.51
N11: W 2.29, Y 3.13, G 3.15, S 3.16
G4: H 3.71, R 3.73, E 4.09, Y 3.13, S 3.57, C 3.47, P 4.03, N 2.93
P8: M 2.47, A 2.9, F 2.61, Q 3.56, N 3.31, K 3.58
R16: P 3.55, I 3.21, F 2.71, H 3.56, N 3.82, Y 2.83, G 4
T21: P 3.08, E 4.27, I 2.77, C 2.92, R 3.05, A 3.6, S 3.52
Y14: V 3.81, I 3.46, P 4.41, W 3.75, A 4.18, F 3.69, C 4.04, T 4.29

Variants of: B2
Experiment: as above
Conditions: c terminus: a fixed tail appended

Protein stability index: each site, then its substitutions
R23: D 2.41, N 1.44, I 1.21, Y 2.49, T 2.02, P 2.08, L 3.42, F 1.77, S 1.56, H 3.12, V 2.89, E 1.75, M 2.34, W 1.91, K 1.92, A 2.36, G 1.6
D22: H 1.45, P 1.48, S 2.43, I 2.98, Y 2.07, C 1.93, M 1.9, V 1.54, W 1.25, L 1.7, K 2.12, R 1.84, Q 1.69, T 3.48, N 1.24, E 2.33
T19: F 1.85, C 1.42, K 1.84, G 2.72, S 2.5, Q 2.37, P 1.83, L 2.3, N 2.09, Y 3.12, M 1.21, E 2.86, R 2.24, I 2.22
V16: E 1.59, H 2.56, I 2.37, Y 1.96, C 1.06, W 2.01, M 2.47, R 1.19, K 2.73, P 1.97, G 3.55, F 1.23, Q 2.28, D 1.81, T 1.61, L 1.57, N 1.78, A 1.66
S24: N 2.44, R 1.47, F 1.88, Y 1.86, H 1.64, D 1.76, V 2.67, M 1.96, L 2.3, T 2.03, I 1.71, K 2.6, P 2.33, A 1.69, Q 2.72
S17: A 2.34, M 1.28, F 2.77, G 3.4, N 2.29, C 3.15, W 2.42, Y 1.53, I 1.28, H 1.85, D 2.33, T 1.64, Q 2.67, R 1.88
C20: T 1.04, H 4.01, L 1.44, V 1.88, Y 2.24, D 2.3, I 1.63, A 3.39, N 2.6, Q 1.84, W 3.63, F 1.84, S 1.75, P 1.81, M 2.33
P15: D 3.23, S 3.98, Q 2.43, W 1.98, I 2.35, Y 1.27, R 1.68, T 1.82, L 2.1, N 1.95, G 2.05, K 2.03
E18: K 2.27, Y 2.18, M 1.4, T 2.15, G 1.41, I 2.05, N 1.75, D 2.28, L 1.97, H 1.51, Q 1.54, F 2.36, R 1.8, V 2.76, P 2.06, W 2.45
R14: V 1.55, S 1.01, Q 1.77, T 3.45, W 1.6, P 2.69, Y 2.1
T21: Y 1.84, E 1.55, H 1.56, F 2.31, V 1.9, M 3.38, R 2.8, D 1.34, L 2.43, A 1.39, P 1.26, G 1.47, K 2.49
